# From US20220112288A1 (published 2022)
# Legend:
# [1] = biological target: T1, Recombinant human CD4 (R&D Systems, Cat. 10327-CD) (human, UniProt P01730 26-390, limits assumed); test: BLI (Octet Red384), non-clonal supernatant on AMC sensor, 100 nM human CD4
# T1 construct: Bought soluble recombinant protein used as analyte at 100 nM; also called huCD4
# [2] = biological target: T1, Recombinant human CD4 (R&D Systems, …); test: BLI (Octet Red384), non-clonal supernatant on AMC sensor, 100 nM human CD4, 1:1 local fit;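 note: hybridoma antibodies captured from supernatant, single CD4 concentration as analyte, association and dissociation phases fitted together, giving single-point kinetic estimates per supernatant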
# [3] = biological target: T2, human CD8 on human pan T cells (CD4-negative population) (human, UniProt P01732 22-235; P10966 22-210); test: flow cytometry, 20 nM antibody on human pan T cells, A647 anti-human IgG Fc; geomean ratio in CD4-negative population
# T2 construct: whole, on cells; Endogenous CD8 on primary human pan T cells, read in the CD4-negative gate; also called CD8α/β
# T2 sequence (P01732 22-235, chain 1 of 2): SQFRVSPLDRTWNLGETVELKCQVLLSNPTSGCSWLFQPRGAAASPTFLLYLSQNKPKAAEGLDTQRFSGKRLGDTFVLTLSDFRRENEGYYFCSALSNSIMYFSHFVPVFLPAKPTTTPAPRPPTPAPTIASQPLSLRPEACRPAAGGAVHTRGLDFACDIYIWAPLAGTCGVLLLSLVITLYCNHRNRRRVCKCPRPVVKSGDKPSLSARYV
# T2 sequence (P10966 22-210, chain 2 of 2): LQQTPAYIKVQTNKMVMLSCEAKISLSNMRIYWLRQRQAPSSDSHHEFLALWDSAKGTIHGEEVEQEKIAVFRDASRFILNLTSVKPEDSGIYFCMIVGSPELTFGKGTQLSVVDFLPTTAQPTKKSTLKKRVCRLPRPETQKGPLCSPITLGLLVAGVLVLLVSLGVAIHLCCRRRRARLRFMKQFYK
Binder,Response [1],Kd [2],koff [2],kon [2],Cell Binding to Human PanT Signal/Background (of CD4 negative population) [3]
"75110_08D24A (antibody, V domains shown, Non-clonal AlivaMab Mouse Kappa hybridoma supernatant, captured by anti-mouse IgG Fc (human V regions, mouse Fc)) VH: QVQLQESGPGLVKPSETLSLTCTVSGGSISGFYWSWIRQPAGKGLEWIGRIYTSENTNYNPSLKSRVTMSVDTSKNQFSLKLSSVTAADTAVYYCARDREGYYYYGMDVWGQGTTVTVSS VL: DIQMTQSPSSLSASVGDRVTITCQASQDISNYLNWYQQKPGKAPKLLIYAASNLETGVPSRFSGSGSGTDFTFTISSLQPEDIATYYCQQYDSLPITFGQGTRLEIK",0.21,34 nM,0.006 s⁻¹,170000 M⁻¹ s⁻¹,–
"75110_08F20A (antibody, V domains shown, Non-clonal AlivaMab Mouse Kappa hybridoma supernatant, captured by anti-mouse IgG Fc (human V regions, mouse Fc)) VH: QVQLQESGPGLVKPSETLSLTCSVSGGSISTYYWSWIRQPAGKGLEWIGRICTTENTNYNPSLKSRVTMSIDSSKNQFSLKLSSVTAADTAVYYCARDLERLNYYGMDVWGQGATVTVSS VL: DIQMTQSPSSLSASVGDRVTITCQASQDISKYLNWYQQKPGIAPKLLIYDASNLETGVPSRFSGSGSGTDFTFTISSLQPEDFATYYCQQYDSLPITFGQGTRLEIK",0.32,1.9 nM,0.00026 s⁻¹,140000 M⁻¹ s⁻¹,–
"75110_06G04A (antibody, V domains shown, Non-clonal AlivaMab Mouse Kappa hybridoma supernatant, captured by anti-mouse IgG Fc (human V regions, mouse Fc)) VH: QVQLLESGPGLVKPSETLSLTCTVSGGSISSYYWSWIRQPAGKGLEWIGRIYISGSTNYNPSLKSRVTMSIDTSENQFSLNLSSVTAADTAVYYCARELERPYYYGMDVWGQGTTVTVSS VL: DIQMTQSPSSLSASVGDRVTITCQASQDISNYLNWYQQKPGKAPKLLIYNASTLETGVPSRFSGSGSGTDFTFTISSLQPEDIATYYCQQYDNLPLTFGGGTKVEFK",0.12,14 nM,0.001 s⁻¹,75000 M⁻¹ s⁻¹,–
"75110_06E14A (antibody, V domains shown, Non-clonal AlivaMab Mouse Kappa hybridoma supernatant, captured by anti-mouse IgG Fc (human V regions, mouse Fc)) VH: QVQLQESGPGLVKPSETLSLTCTVSGGSISNYFWSWIRQPAGKGLEWIGRIYSSGNTNYNPSLKSRVTMSVDTSKNQFSLKLSSVTAADTAVYYCARDREDYYYYGMDVWGQGTTVTVSS VL: DIQMTQSPSSLSASVGDRVTITCQASQDISNYLNWYQQKPGKAPKLLIYGASILETGVPSRFTGSGSGTDFTFTISSLQPEDIATYYCQQYDSLPITFGQGTRLEIK",0.12,12 nM,0.002 s⁻¹,170000 M⁻¹ s⁻¹,–
"CD8B200 (antibody, human IgG1, kappa, V domains shown, Full-length human IgG1, kappa; V regions recovered from mouse hybridoma) VH: EVQLQQSGAELVKPGASVKLSCKASGYTFTNYWIHWVKQRPGQGLEWIGNIDPSDSETHYNQKFKDKATLTVDKSSSTAYMQLISLTSEDSAVYYCASGLTGTGYYWGQGTTLTVSS VL: DIQMTQTTSSLSASLGDRVTITCRASQDISPYLNWYQQKPEGTIKLLIYYTSKLHSGVPSRFSGSGSGTDYSLTISNLEQEDIATYFCQQDNTLPYTFGSGTKLELKR",–,–,–,–,1990
"CD8B246 (antibody, human IgG1, kappa, V domains shown, Full-length human IgG1, kappa; V regions recovered from mouse hybridoma) VH: QVQLKESGPGILKPSQTLSLTCSFSGFSLSTSGMNVGWIRQPSGKGLEWLAHIWWDDDKYYNPSLKSQLTISKDTSRNQVFLKITSVDTADTATYYCARRGNYGNYEFAYWGQGTTLTVSS VL: DIQMTQTTSSLSASLGDRVTISCRASQDIRNYLNWYQQKPDGTVKLLIYHTSRLHSGVPSRFSGSGSGTDYSLTISNLEQEDIATYFCQQGNTLPWTFGAGTKLELKR",–,–,–,–,1110
"CD8B268 (antibody, human IgG1, kappa, V domains shown, Full-length human IgG1, kappa; V regions recovered from mouse hybridoma) VH: QVQLQQSGAELVKPGASVKLSCKASGYTFTVYTIHWVKQRSGQGLEWIGWFYPGSGNIKYNEKFKDKATLTADKSSHTVYMELSRLTSEDSAVYFCARHEDNHYYDGNSWFAYWGQGTLVTVSA VL: DIQMTQSPASLSASVGQTVTITCRASGNIHNYLAWFQQKQGKSPQLLVYNAKTLADGVPSRFSGSGSGTQYSLKINSLQTEDFGNYYCQHFWNTPYTFGGGTKLEIKR",–,–,–,–,1170
"CD8B240 (antibody, human IgG1, kappa, Full-length human IgG1, kappa; V regions recovered from mouse hybridoma) heavy: not shown light: DIVMTQSPATLSVTPGDRVSLSCRASQSISDFLHWYQQKSHESPRLLIKYASQSISGIPSRFSGSGSGSDFTLTINSVEPEDVGVYYCQNGHSFPYTFGSGTKLEIKRTVAAPSVFIFPPSDEQLKSGTASVVCLLNNFYPREAKVQWKVDNALQSGNSQESVTEQDSKDSTYSLSSTLTLSKADYEKHKVYACEVTHQGLSSPVTKSFNRGEC",–,–,–,–,1310

# Results, then the binder that gave them:
Response [1],Kd [2],koff [2],kon [2],Cell Binding to Human PanT Signal/Background (of CD4 negative population) [3],Binder
0.13,3.4 nM,0.00096 s⁻¹,280000 M⁻¹ s⁻¹,–,"75110_08G08A (antibody, V domains shown, Non-clonal AlivaMab Mouse Kappa hybridoma supernatant, captured by anti-mouse IgG Fc (human V regions, mouse Fc)) VH: QVQLQESGPGLVKPSETLSLTCSVSGGSISTYYWSWIRQPAGKGLEWIGRICTTENTNYNPSLKSRVTMSIDSSKNQFSLKLSSVTAADTAVYYCARDLERLNYYGMDVWGQGATVTVSS VL: DIQMTQSPSSLSASVGDRVTITCQASQDISNYLNWYQQKPGIAPKLLIYDASNLETGVPSRFSGSGSGTDFTFTISSLQPEDIATYYCQQYDSLPITFGQGTRLEIK"
0.19,3.6 nM,0.00053 s⁻¹,150000 M⁻¹ s⁻¹,–,"75110_08M20A (antibody, V domains shown, Non-clonal AlivaMab Mouse Kappa hybridoma supernatant, captured by anti-mouse IgG Fc (human V regions, mouse Fc)) VH: QVQLQESDPGLVKPSETLSLTCTVSGGSISSYYWSWIRQPAGKGLEWIGRIYASGSTNYNPSLKSRVTMSVDTSKNQFSLKLSSVTAADTAVYYCARDREGYYYYGMDVWGQGTTVTVSS VL: DIQMTQSPSSLSASVGDRVTITCQASQDISKYLNWYQQKPGKAPNLLIYAASNLETGVPSRFSGSGSGTDFTFTISSLQPEDIAAYYCQQYDSLPITFGQGTRLEIK"
–,–,–,–,1560,"CD8B364 (antibody, human IgG1, kappa, V domains shown, Full-length human IgG1, kappa; V regions recovered from mouse hybridoma) VH: QVQLQQPGAELVKPGASVKLSCKASGYTFTSYWMHWVNRRPGQGLEWIGEINPSNGDSYYNEKFKRKATLTVDISSSTAYMQLSSLTSEDSAVYYCTRSMYYDGRAGAYWGQGTTVTVSS VL: DIVLTQSPASLSVATGEKVTIRCITSTDIDDDMNWYQQKPGEPPKLLISEGNTLRPGVPSRFSSSGYGTDFVFTIENTLSEDVADYYCLQSDNMPLTFGAGTKLELKR"
0.13,0.56 nM,3.83e-05 s⁻¹,68400 M⁻¹ s⁻¹,–,"75110_07J02A (antibody, V domains shown, Non-clonal AlivaMab Mouse Kappa hybridoma supernatant, captured by anti-mouse IgG Fc (human V regions, mouse Fc)) VH: EVQLVESGGGLVQPGGSLRLSCAASGFTFSSYWMSWVRQAPGKGLEWVANIKEDGSEKYYVDSVKGRFTISRDNAKNSLYLQMNSLRAEDTAVYYCARDGSYSGYGMDVWGQGTTVTVSS VL: AIQMTQSPSSLSASVGDRVTITCRASQGIRNDLGWYQQKPGKAPKLLIYAASSLQSGVPSRFSGRGSGTDFALTISSLQPEDFATYYCLLDYNYPYTFGQGTRLEIK"
–,–,–,–,2500,"CD8B270 (antibody, human IgG1, kappa, V domains shown, Full-length human IgG1, kappa; V regions recovered from mouse hybridoma) VH: QVQLQQPGAELVKPGASVMLSCKASGYTFTNYWMHWVKQRPGQGLEWIGNIDPSDSETHYNQKFKDKATLTVDKSSSTAYMQLSSLTSEDSAVYYCASGLTGTGYYWGQGTTLTVSS VL: DIQMTQTTSSLSASLGDRVTITCRASQDIRPYLNWYQQKPEGTIKLLIYFTSKLHSGVPSRFSGSGSGTDYSLTISNLEQEDIATYFCQQDNTLPYTFGSGTKLELKR"
–,–,–,–,923,"CD8B304 (antibody, human IgG1, kappa, V domains shown, Full-length human IgG1, kappa; V regions recovered from mouse hybridoma) VH: QVTLKESGPGILKPSQTLSLTCSFSGFSLSTSGMNVGWIRQPSGKGLEWLAHIWWDDDKYYNPSLKSQLTISKDTSRNQVFLKITSVDTADTATYYCARRGNYGNYEFAYWGQGTTVTVSS VL: DIQMTQTTSSLSASLGDRVTISCRASQDIRNYLNWYQQKPDGTVKLLIYHTSRLHSGVPSRFSGSGSGTDYSLTISNLDQEDIATYFCQQGNTLPWTFGAGTKLELKR"
–,–,–,–,938,"CD8B273 (antibody, human IgG1, kappa, V domains shown, Full-length human IgG1, kappa; V regions recovered from mouse hybridoma) VH: QVQLQQSGAELVKPGASVKLSCKASGYTFTEYTIHWVKQRSGQGLEWIGWFYPGTGSIKYNEKFKDKATLTADKSSHTVYMELSKLTSEDSAVYFCARHEDNHYYDGNSWFAYWGQGTLVTVSA VL: DIQMTQSPASLSASVGETVTITCRASGNIHNYLAWFQQKQGKSPQLLVYNAKTLADGVPSRFSGSGSGTQYSLKINSLQAEDFGSYYCQHFWSTPYTFGSGTKLEIKR"
–,–,–,–,827,"CD8B213 (antibody, human IgG1, kappa, V domains shown, Full-length human IgG1, kappa; V regions recovered from mouse hybridoma) VH: EVQLQQSGPELVKPGDSMKMSCKASGYIFTDYYMDWVKQSHGKSLEWIGYIYPNNGITSYNQKFKGRATLTIDKSSSTAYMELHSLTSEDSAVYYCARSIYYDHGGGFPYWGQGTSVTVSS VL: DIVLTQSQKFMSTSVGDRVSVTCKASQNVDKYVAWYQQKPGQSPKALIYSASYRYSGVPDRFTGSGSGTDFTLTISNVQSEDLAEYFCQQYNTYPSFGSGTKLEMKR"
–,–,–,–,1050,"CD8B361 (antibody, human IgG1, kappa, V domains shown, Full-length human IgG1, kappa; V regions recovered from mouse hybridoma; also called CD8B36I) VH: EVQLQQSGPELVKPGNSVKMSCKASGYTFTDYYMDWVKQSHGTSLEWIGYIYPNNGDTRYNQKFKDKATLTVDKSSSTAYMELHSLTSEDSAVFYCARSIYYDHGGGFPYWGQGTLVTVSA VL: DIVMTQSQKFMSTSVGDRVSVTCKASQNVGTYVAWYQQKPGQSPKALIYSASYRYSGVPDRFTGSGSGTDFTLTINNVQSEDLAEYLCQQYNSYPTFGGGTRLEIKR"
0.0363,< 0.001 nM,< 1e-07 s⁻¹,78800 M⁻¹ s⁻¹,–,"75110_14G10A (antibody, V domains shown, Non-clonal AlivaMab Mouse Kappa hybridoma supernatant, captured by anti-mouse IgG Fc (human V regions, mouse Fc)) VH: EVQLVESGGGLVKPGGSLRLSCAASGFTFSSYSMNWVRQAPGKGLEWVSFISSSSSYIYYADSVKGRFTISRDNAKNSLYLQMNSLRAEDTAVYYCARERGDDYGDYEGAFDIWGQGTMVTVSS VL: not shown"
–,–,–,–,2440,"CD8B191 (antibody, human IgG1, kappa, Full-length human IgG1, kappa; V regions recovered from mouse hybridoma) heavy: not shown light: DIVLTQSPATLSVTPGDRVSLSCRASQSISDFLHWYQQKSHESPRLLIKYASQSISGIPSRFSGSGSGSDFTLTINSVEPEDVGVYYCQNGHSFPYTFGSGTKLEIKRTVAAPSVFIFPPSDEQLKSGTASVVCLLNNFYPREAKVQWKVDNALQSGNSQESVTEQDSKDSTYSLSSTLTLSKADYEKHKVYACEVTHQGLSSPVTKSFNRGEC"
